Measured values reported in PMC2757719, “EBNA1-Mediated Recruitment of a Histone H2B Deubiquitylating Complex to the Epstein-Barr Virus Latent Origin of DNA Replication” (PLoS Pathogens, 2009).

B1: EBNA1 truncation mutant 395–641 (domain or fragment)
chain: PRRPPPGRRPFFHPVGEADYFEYHQEGGPDGEPDVPPGAIEQGPADDPGEGPSTGPRGQGDGGRRKKGGWFGKHRGQGGSNPKFENIAEGLRALLARSHVERTTDEGTWVAGVFVYGGSKTSLYNLRRGTALAIPQCRLTPLSRLPFGMAPGPGPQPGPLRESIVCYFMVFLQTHIFAEVLKDAIKDLVMTKPAPTCNIRVTVCSFDDGVDLPPWFPPMVEGAAAEGDDGDDGDEGGDGDEGEEGQE
notes: EBNA1 of Epstein-Barr virus, amino acids 395-641, amplified from pc3oriPEBNA1; also called EBNA1_(395–641); EBNA_(395–641); source: E. coli BL21 pLysS (pET15b), purified (Ni-NTA Agarose)
B2: GMP synthetase (GMPS), His-tagged, recombinant (enzyme)
chain: not shown
notes: human GMP synthetase, full-length cDNA (in pOTB7) amplified from the start codon to the stop codon and cloned into pFastBac HT B; mass printed as 77 Kda; also called guanosine 5′ monophosphate synthetase; His-tagged GMPS; source: High Five insect cells infected with baculovirus, purified (nickel resin)

Columns and labels:
[1] = target: T1, USP7 (ubiquitin specific protease USP7), full length (human, UniProt Q93009 1-1102); assay: native gel or EMSA; EBNA1 fragment titrated, preincubated with 10 pmols USP7 or USP7-NTD 10 min at RT before 10 fmoles 32P-labelled DS site 1 DNA (or EBNA1-DNA preformed, then rising USP7, Figure 2C); 20 mM Tris pH 7.5, 200 mM NaCl, 1 µg salmon sperm DNA, 20 µl; 10% polyacrylamide gel; read-out: supershift of the EBNA1-DNA complex; settings: both partners purified
T1 construct: Ubiquitin specific protease USP7 (HAUSP), human, full length; calculated mass printed as 130 Kd (135 kDa in the introduction); Monomeric by glycerol gradient sedimentation; also called HAUSP; Herpesvirus Associated Ubiquitin Specific Protease
T1 sequence (Q93009 whole entry, the tested form may be a part): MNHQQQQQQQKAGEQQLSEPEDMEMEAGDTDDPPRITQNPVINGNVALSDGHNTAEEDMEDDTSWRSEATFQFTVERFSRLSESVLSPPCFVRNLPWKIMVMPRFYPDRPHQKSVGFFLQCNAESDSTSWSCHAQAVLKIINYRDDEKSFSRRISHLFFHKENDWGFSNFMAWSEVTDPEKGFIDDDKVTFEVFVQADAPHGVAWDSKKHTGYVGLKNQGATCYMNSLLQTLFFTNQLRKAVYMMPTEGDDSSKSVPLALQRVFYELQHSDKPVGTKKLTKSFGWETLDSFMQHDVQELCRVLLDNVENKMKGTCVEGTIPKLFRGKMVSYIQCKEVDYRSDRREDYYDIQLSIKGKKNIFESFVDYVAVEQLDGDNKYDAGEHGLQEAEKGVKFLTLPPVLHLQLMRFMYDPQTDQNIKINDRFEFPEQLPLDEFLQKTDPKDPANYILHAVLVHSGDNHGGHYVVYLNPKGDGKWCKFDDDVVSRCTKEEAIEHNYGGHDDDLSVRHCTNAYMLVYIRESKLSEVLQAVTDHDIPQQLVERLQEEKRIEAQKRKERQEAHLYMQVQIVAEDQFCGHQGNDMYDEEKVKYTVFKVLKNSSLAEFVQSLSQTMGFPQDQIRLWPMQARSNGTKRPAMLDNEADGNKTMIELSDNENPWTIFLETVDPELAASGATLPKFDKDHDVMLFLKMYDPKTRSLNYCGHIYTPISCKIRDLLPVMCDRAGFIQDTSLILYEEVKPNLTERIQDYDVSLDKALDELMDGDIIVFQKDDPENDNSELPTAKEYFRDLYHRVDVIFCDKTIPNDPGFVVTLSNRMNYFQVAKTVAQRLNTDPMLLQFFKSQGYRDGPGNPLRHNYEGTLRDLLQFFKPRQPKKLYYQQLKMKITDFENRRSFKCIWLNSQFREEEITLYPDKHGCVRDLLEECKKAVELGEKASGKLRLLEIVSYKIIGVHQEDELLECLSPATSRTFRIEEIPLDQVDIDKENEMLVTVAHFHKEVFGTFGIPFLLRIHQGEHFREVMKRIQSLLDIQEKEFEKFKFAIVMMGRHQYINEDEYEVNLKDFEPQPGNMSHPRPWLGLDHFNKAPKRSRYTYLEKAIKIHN

[2] = target: T1, USP7 (ubiquitin specific protease …); assay: co-sedimentation; glycerol gradient sedimentation: 50 µg USP7 and 25 µg GMPS, alone or mixed 1 h at room temperature, on 10%–20% glycerol gradients in 50 mM HEPES pH 7.9, 200 mM NaCl, 0.5 mM EDTA; SW41 34,000 rpm, 18 h, 4°C; markers aldolase 158 kDa, catalase 232 kDa; settings: both partners purified
[3] = target: the molecule itself; assay: as above

| Binder | binding result [1] | stoichiometry N [2] | stoichiometry N [3] |
| --- | --- | --- | --- |
| B1 | binds |  |  |
| B2 |  | 1 | 2 |
